Data on twelve variants can be found in the supplement of paper PMC11908140.

The labels stand for the following.
B1: library; numbered along this chain (parent)
chain: MRKPRAAVGSGHRKQAASQEGRQKHAKNNSQAKPSACDGLARQPEEVVLQASVSSYHLFRDVAEVTAFRGSLLSWYDQEKRDLPWRRRAEDEMDLDRRAYAVWVSEVMLQQTQVATVINYYTGWMQKWPTLQDLASASLEEVNQLWAGLGYYSRGRRLQEGARKVVEELGGHMPRTAETLQQLLPGVGRYTAGAIASIAFGQATGVVDGNVARVLCRVRAIGADPSSTLVSQQLWGLAQQLVDPARPGDFNQAAMELGATVCTPQRPLCSQCPVESLCRARQRVEQEQLLASGSLSGSPDVEECAPNTGQCHLCLPPSEPWDQTLGVVNFPRKASRKPPREESSATCVLEQPGALGAQILLVQRPNSGLLAGLWEFPSVTWEPSEQLQRKALLQELQRWAGPLPATHLRHLGEVVHTFSHIKLTYQVYGLALEGQTPVTTVPPGARWLTQEEFHTAAVSTAMKKVFRVYQGQQPGTCMGSKRSQVSSPCSRKKPRMGQQVLDNFFRSHISTDAHSLNSAAQ

The variants in this data set derive from B1. Nature of the data set: 8OG:A repair function score (normalized; synonymous = 0, nonsense = -1) (normalized log-likelihood score); higher = more repair activity (WT-like). The following applies: with 8OG:A DNA repair reporter (GFP) in HEK-293 MUTYH KO cells. The method, then: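 Saturation mutagenesis (NNN codon scan) of the MUTYH cDNA (521-aa nuclear isoform NM_001048174.1 / NP_001041639), stably expressed under doxycycline induction in HEK-293 MUTYH knockout cells. Cells were co-transfected with an 8OG:A-bearing GFP repair reporter plus mCherry and sorted 72 h later into GFP+ and GFP− bins, three replicates per tile. The Rosace log2 enrichment (GFP+ vs GFP−) was converted per tile to a normalized function score with synonymous variants centered at 0 and nonsense variants (codons 1-471) at -1; low-abundance variants were removed.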
For the variant MRKPRAAVGSGHRKQAASQEGRQKHAKNNSQAKPSACDGLARQPEEVVLQASVSSYHLFRDVAEVTAFRGSLLSWYDQEKRDLPWRRRAEDEMDLDRRAYAVWVSEAMLQQTQVATVINYYTGWMQKWPTLQDLASASLEEVNQLWAGLGYYSRGRRLQEGARKVVEELGGHMPRTAETLQQLLPGVGRYTAGAIASIAFGQATGVVDGNVARVLCRVRAIGADPSSTLVSQQLWGLAQQLVDPARPGDFNQAAMELGATVCTPQRPLCSQCPVESLCRARQRVEQEQLLASGSLSGSPDVEECAPNTGQCHLCLPPSEPWDQTLGVVNFPRKASRKPPREESSATCVLEQPGALGAQILLVQRPNSGLLAGLWEFPSVTWEPSEQLQRKALLQELQRWAGPLPATHLRHLGEVVHTFSHIKLTYQVYGLALEGQTPVTTVPPGARWLTQEEFHTAAVSTAMKKVFRVYQGQQPGTCMGSKRSQVSSPCSRKKPRMGQQVLDNFFRSHISTDAHSLNSAAQ [V107A], the “8OG:A repair function score” value amounted to 0.0286. To MRKPRAAVGSGHRKQAASQEGRQKHAKNNSQAKPSACDGLARQPEEVVLQASVSSYHLFRDVAEVTAFRGSLLSWYDQEKRDLPWRRRAEDEMDLDRRAYAVWVSECMLQQTQVATVINYYTGWMQKWPTLQDLASASLEEVNQLWAGLGYYSRGRRLQEGARKVVEELGGHMPRTAETLQQLLPGVGRYTAGAIASIAFGQATGVVDGNVARVLCRVRAIGADPSSTLVSQQLWGLAQQLVDPARPGDFNQAAMELGATVCTPQRPLCSQCPVESLCRARQRVEQEQLLASGSLSGSPDVEECAPNTGQCHLCLPPSEPWDQTLGVVNFPRKASRKPPREESSATCVLEQPGALGAQILLVQRPNSGLLAGLWEFPSVTWEPSEQLQRKALLQELQRWAGPLPATHLRHLGEVVHTFSHIKLTYQVYGLALEGQTPVTTVPPGARWLTQEEFHTAAVSTAMKKVFRVYQGQQPGTCMGSKRSQVSSPCSRKKPRMGQQVLDNFFRSHISTDAHSLNSAAQ [V107C] belongs -0.0803; to MRKPRAAVGSGHRKQAASQEGRQKHAKNNSQAKPSACDGLARQPEEVVLQASVSSYHLFRDVAEVTAFRGSLLSWYDQEKRDLPWRRRAEDEMDLDRRAYAVWVSEDMLQQTQVATVINYYTGWMQKWPTLQDLASASLEEVNQLWAGLGYYSRGRRLQEGARKVVEELGGHMPRTAETLQQLLPGVGRYTAGAIASIAFGQATGVVDGNVARVLCRVRAIGADPSSTLVSQQLWGLAQQLVDPARPGDFNQAAMELGATVCTPQRPLCSQCPVESLCRARQRVEQEQLLASGSLSGSPDVEECAPNTGQCHLCLPPSEPWDQTLGVVNFPRKASRKPPREESSATCVLEQPGALGAQILLVQRPNSGLLAGLWEFPSVTWEPSEQLQRKALLQELQRWAGPLPATHLRHLGEVVHTFSHIKLTYQVYGLALEGQTPVTTVPPGARWLTQEEFHTAAVSTAMKKVFRVYQGQQPGTCMGSKRSQVSSPCSRKKPRMGQQVLDNFFRSHISTDAHSLNSAAQ [V107D], -1.44. To MRKPRAAVGSGHRKQAASQEGRQKHAKNNSQAKPSACDGLARQPEEVVLQASVSSYHLFRDVAEVTAFRGSLLSWYDQEKRDLPWRRRAEDEMDLDRRAYAVWVSSVMLQQTQVATVINYYTGWMQKWPTLQDLASASLEEVNQLWAGLGYYSRGRRLQEGARKVVEELGGHMPRTAETLQQLLPGVGRYTAGAIASIAFGQATGVVDGNVARVLCRVRAIGADPSSTLVSQQLWGLAQQLVDPARPGDFNQAAMELGATVCTPQRPLCSQCPVESLCRARQRVEQEQLLASGSLSGSPDVEECAPNTGQCHLCLPPSEPWDQTLGVVNFPRKASRKPPREESSATCVLEQPGALGAQILLVQRPNSGLLAGLWEFPSVTWEPSEQLQRKALLQELQRWAGPLPATHLRHLGEVVHTFSHIKLTYQVYGLALEGQTPVTTVPPGARWLTQEEFHTAAVSTAMKKVFRVYQGQQPGTCMGSKRSQVSSPCSRKKPRMGQQVLDNFFRSHISTDAHSLNSAAQ [E106S] belongs -1.21; to MRKPRAAVGSGHRKQAASQEGRQKHAKNNSQAKPSACDGLARQPEEVVLQASVSSYHLFRDVAEVTAFRGSLLSWYDQEKRDLPWRRRAEDEMDLDRRAYAVWVSTVMLQQTQVATVINYYTGWMQKWPTLQDLASASLEEVNQLWAGLGYYSRGRRLQEGARKVVEELGGHMPRTAETLQQLLPGVGRYTAGAIASIAFGQATGVVDGNVARVLCRVRAIGADPSSTLVSQQLWGLAQQLVDPARPGDFNQAAMELGATVCTPQRPLCSQCPVESLCRARQRVEQEQLLASGSLSGSPDVEECAPNTGQCHLCLPPSEPWDQTLGVVNFPRKASRKPPREESSATCVLEQPGALGAQILLVQRPNSGLLAGLWEFPSVTWEPSEQLQRKALLQELQRWAGPLPATHLRHLGEVVHTFSHIKLTYQVYGLALEGQTPVTTVPPGARWLTQEEFHTAAVSTAMKKVFRVYQGQQPGTCMGSKRSQVSSPCSRKKPRMGQQVLDNFFRSHISTDAHSLNSAAQ [E106T], -1.01; to MRKPRAAVGSGHRKQAASQEGRQKHAKNNSQAKPSACDGLARQPEEVVLQASVSSYHLFRDVAEVTAFRGSLLSWYDQEKRDLPWRRRAEDEMDLDRRAYAVWVSQVMLQQTQVATVINYYTGWMQKWPTLQDLASASLEEVNQLWAGLGYYSRGRRLQEGARKVVEELGGHMPRTAETLQQLLPGVGRYTAGAIASIAFGQATGVVDGNVARVLCRVRAIGADPSSTLVSQQLWGLAQQLVDPARPGDFNQAAMELGATVCTPQRPLCSQCPVESLCRARQRVEQEQLLASGSLSGSPDVEECAPNTGQCHLCLPPSEPWDQTLGVVNFPRKASRKPPREESSATCVLEQPGALGAQILLVQRPNSGLLAGLWEFPSVTWEPSEQLQRKALLQELQRWAGPLPATHLRHLGEVVHTFSHIKLTYQVYGLALEGQTPVTTVPPGARWLTQEEFHTAAVSTAMKKVFRVYQGQQPGTCMGSKRSQVSSPCSRKKPRMGQQVLDNFFRSHISTDAHSLNSAAQ [E106Q], -1.51. As for MRKPRAAVGSGHRKQAASQEGRQKHAKNNSQAKPSACDGLARQPEEVVLQASVSSYHLFRDVAEVTAFRGSLLSWYDQEKRDLPWRRRAEDEMDLDRRAYAVWVSWVMLQQTQVATVINYYTGWMQKWPTLQDLASASLEEVNQLWAGLGYYSRGRRLQEGARKVVEELGGHMPRTAETLQQLLPGVGRYTAGAIASIAFGQATGVVDGNVARVLCRVRAIGADPSSTLVSQQLWGLAQQLVDPARPGDFNQAAMELGATVCTPQRPLCSQCPVESLCRARQRVEQEQLLASGSLSGSPDVEECAPNTGQCHLCLPPSEPWDQTLGVVNFPRKASRKPPREESSATCVLEQPGALGAQILLVQRPNSGLLAGLWEFPSVTWEPSEQLQRKALLQELQRWAGPLPATHLRHLGEVVHTFSHIKLTYQVYGLALEGQTPVTTVPPGARWLTQEEFHTAAVSTAMKKVFRVYQGQQPGTCMGSKRSQVSSPCSRKKPRMGQQVLDNFFRSHISTDAHSLNSAAQ [E106W], the figure is -1.04. Regarding MRKPRAAVGSGHRKQAASQEGRQKHAKNNSQAKPSACDGLARQPEEVVLQASVSSYHLFRDVAEVTAFRGSLLSWYDQEKRDLPWRRRAEDEMDLDRRAYAVWVSPVMLQQTQVATVINYYTGWMQKWPTLQDLASASLEEVNQLWAGLGYYSRGRRLQEGARKVVEELGGHMPRTAETLQQLLPGVGRYTAGAIASIAFGQATGVVDGNVARVLCRVRAIGADPSSTLVSQQLWGLAQQLVDPARPGDFNQAAMELGATVCTPQRPLCSQCPVESLCRARQRVEQEQLLASGSLSGSPDVEECAPNTGQCHLCLPPSEPWDQTLGVVNFPRKASRKPPREESSATCVLEQPGALGAQILLVQRPNSGLLAGLWEFPSVTWEPSEQLQRKALLQELQRWAGPLPATHLRHLGEVVHTFSHIKLTYQVYGLALEGQTPVTTVPPGARWLTQEEFHTAAVSTAMKKVFRVYQGQQPGTCMGSKRSQVSSPCSRKKPRMGQQVLDNFFRSHISTDAHSLNSAAQ [E106P], the “8OG:A repair function score” value is -1.62. To MRKPRAAVGSGHRKQAASQEGRQKHAKNNSQAKPSACDGLARQPEEVVLQASVSSYHLFRDVAEVTAFRGSLLSWYDQEKRDLPWRRRAEDEMDLDRRAYAVWVSNVMLQQTQVATVINYYTGWMQKWPTLQDLASASLEEVNQLWAGLGYYSRGRRLQEGARKVVEELGGHMPRTAETLQQLLPGVGRYTAGAIASIAFGQATGVVDGNVARVLCRVRAIGADPSSTLVSQQLWGLAQQLVDPARPGDFNQAAMELGATVCTPQRPLCSQCPVESLCRARQRVEQEQLLASGSLSGSPDVEECAPNTGQCHLCLPPSEPWDQTLGVVNFPRKASRKPPREESSATCVLEQPGALGAQILLVQRPNSGLLAGLWEFPSVTWEPSEQLQRKALLQELQRWAGPLPATHLRHLGEVVHTFSHIKLTYQVYGLALEGQTPVTTVPPGARWLTQEEFHTAAVSTAMKKVFRVYQGQQPGTCMGSKRSQVSSPCSRKKPRMGQQVLDNFFRSHISTDAHSLNSAAQ [E106N] belongs -1.72. As for MRKPRAAVGSGHRKQAASQEGRQKHAKNNSQAKPSACDGLARQPEEVVLQASVSSYHLFRDVAEVTAFRGSLLSWYDQEKRDLPWRRRAEDEMDLDRRAYAVWVSYVMLQQTQVATVINYYTGWMQKWPTLQDLASASLEEVNQLWAGLGYYSRGRRLQEGARKVVEELGGHMPRTAETLQQLLPGVGRYTAGAIASIAFGQATGVVDGNVARVLCRVRAIGADPSSTLVSQQLWGLAQQLVDPARPGDFNQAAMELGATVCTPQRPLCSQCPVESLCRARQRVEQEQLLASGSLSGSPDVEECAPNTGQCHLCLPPSEPWDQTLGVVNFPRKASRKPPREESSATCVLEQPGALGAQILLVQRPNSGLLAGLWEFPSVTWEPSEQLQRKALLQELQRWAGPLPATHLRHLGEVVHTFSHIKLTYQVYGLALEGQTPVTTVPPGARWLTQEEFHTAAVSTAMKKVFRVYQGQQPGTCMGSKRSQVSSPCSRKKPRMGQQVLDNFFRSHISTDAHSLNSAAQ [E106Y], the figure is -1.24.

As for MRKPRAAVGSGHRKQAASQEGRQKHAKNNSQAKPSACDGLARQPEEVVLQASVSSYHLFRDVAEVTAFRGSLLSWYDQEKRDLPWRRRAEDEMDLDRRAYAVWVSVVMLQQTQVATVINYYTGWMQKWPTLQDLASASLEEVNQLWAGLGYYSRGRRLQEGARKVVEELGGHMPRTAETLQQLLPGVGRYTAGAIASIAFGQATGVVDGNVARVLCRVRAIGADPSSTLVSQQLWGLAQQLVDPARPGDFNQAAMELGATVCTPQRPLCSQCPVESLCRARQRVEQEQLLASGSLSGSPDVEECAPNTGQCHLCLPPSEPWDQTLGVVNFPRKASRKPPREESSATCVLEQPGALGAQILLVQRPNSGLLAGLWEFPSVTWEPSEQLQRKALLQELQRWAGPLPATHLRHLGEVVHTFSHIKLTYQVYGLALEGQTPVTTVPPGARWLTQEEFHTAAVSTAMKKVFRVYQGQQPGTCMGSKRSQVSSPCSRKKPRMGQQVLDNFFRSHISTDAHSLNSAAQ [E106V], the “8OG:A repair function score” value is -1.33.

For MRKPRAAVGSGHRKQAASQEGRQKHAKNNSQAKPSACDGLARQPEEVVLQASVSSYHLFRDVAEVTAFRGSLLSWYDQEKRDLPWRRRAEDEMDLDRRAYAVWVSRVMLQQTQVATVINYYTGWMQKWPTLQDLASASLEEVNQLWAGLGYYSRGRRLQEGARKVVEELGGHMPRTAETLQQLLPGVGRYTAGAIASIAFGQATGVVDGNVARVLCRVRAIGADPSSTLVSQQLWGLAQQLVDPARPGDFNQAAMELGATVCTPQRPLCSQCPVESLCRARQRVEQEQLLASGSLSGSPDVEECAPNTGQCHLCLPPSEPWDQTLGVVNFPRKASRKPPREESSATCVLEQPGALGAQILLVQRPNSGLLAGLWEFPSVTWEPSEQLQRKALLQELQRWAGPLPATHLRHLGEVVHTFSHIKLTYQVYGLALEGQTPVTTVPPGARWLTQEEFHTAAVSTAMKKVFRVYQGQQPGTCMGSKRSQVSSPCSRKKPRMGQQVLDNFFRSHISTDAHSLNSAAQ [E106R], the “8OG:A repair function score” value was -1.42.
